The supplement of paper PMC10065799, “High-throughput profiling of sequence recognition by tyrosine kinases and SH2 domains using bacterial peptide display” (eLife, 2023)

How the values were obtained:
c-Abl (mouse) = assay: phosphorylation enrichment, bacterial display (enrichment ratio); higher = better substrate or ligand; peptides without Tyr show the background
Fyn = Fyn (UniProt P06241); assay: as above
EPHB1 = EPHB1 (UniProt P54762); assay: as above
FGFR1 = FGFR1 (UniProt P11362); assay: as above
EPHB2 = EPHB2 (UniProt P29323); assay: as above
MERTK = MERTK (UniProt Q12866); assay: as above
Fes = Fes (UniProt P07332); assay: as above
Hck = Hck (UniProt P08631); assay: as above
Fer (mouse) = assay: as above
Jak2 = Jak2 (UniProt O60674); assay: as above
FGFR3 = FGFR3 (UniProt P22607); assay: as above
AncSZ = assay: as above
c-Src = assay: as above
SHP2-C SH2 = assay: SH2 binding enrichment of the phosphorylated peptide, bacterial display (enrichment ratio); higher = better substrate or ligand; peptides without Tyr show the background
c-Src SH2 = assay: as above
Grb2 SH2 = Grb2 SH2 (UniProt P62993); assay: as above
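For SH2 binding enrichment of the phosphorylated peptide, bacterial display in this document: peptide library displayed on the E. coli surface as eCPX fusions, selected cells deep-sequenced, score is each peptide's frequency after selection divided by its frequency in the input.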
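For phosphorylation enrichment, bacterial display in this document: 11-residue human phosphosite peptides and single-mutation variants displayed on the E. coli surface, counted by deep sequencing, each peptide's frequency after selection divided by its frequency in the unselected input library; frequency after pTyr selection over input frequency; kinase dosed for 20-30% of maximal phosphorylation in three min.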

Sequence of FGFR1 (P11362 whole entry, looked up): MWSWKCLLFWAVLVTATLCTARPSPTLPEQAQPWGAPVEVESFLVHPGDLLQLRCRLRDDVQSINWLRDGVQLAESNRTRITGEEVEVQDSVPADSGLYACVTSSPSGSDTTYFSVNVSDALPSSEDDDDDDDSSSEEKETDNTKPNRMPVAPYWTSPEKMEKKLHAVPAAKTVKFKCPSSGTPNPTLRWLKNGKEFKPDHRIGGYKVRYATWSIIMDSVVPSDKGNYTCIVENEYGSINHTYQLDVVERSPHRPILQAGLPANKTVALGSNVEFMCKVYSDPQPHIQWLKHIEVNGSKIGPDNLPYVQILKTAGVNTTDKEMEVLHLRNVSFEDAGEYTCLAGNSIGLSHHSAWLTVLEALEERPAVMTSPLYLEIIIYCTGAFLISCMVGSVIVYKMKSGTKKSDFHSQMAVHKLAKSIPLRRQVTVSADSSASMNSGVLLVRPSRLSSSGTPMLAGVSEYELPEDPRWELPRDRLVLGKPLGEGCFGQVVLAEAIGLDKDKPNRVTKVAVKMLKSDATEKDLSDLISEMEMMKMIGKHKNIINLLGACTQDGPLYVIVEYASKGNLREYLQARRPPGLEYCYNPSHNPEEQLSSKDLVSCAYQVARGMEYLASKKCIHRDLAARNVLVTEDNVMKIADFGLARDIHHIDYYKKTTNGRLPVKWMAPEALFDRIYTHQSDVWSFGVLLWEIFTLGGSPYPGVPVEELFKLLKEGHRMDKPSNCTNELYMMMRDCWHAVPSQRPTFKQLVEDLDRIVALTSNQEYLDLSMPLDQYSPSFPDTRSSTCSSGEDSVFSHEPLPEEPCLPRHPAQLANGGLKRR
Sequence of Fyn (P06241 whole entry, looked up): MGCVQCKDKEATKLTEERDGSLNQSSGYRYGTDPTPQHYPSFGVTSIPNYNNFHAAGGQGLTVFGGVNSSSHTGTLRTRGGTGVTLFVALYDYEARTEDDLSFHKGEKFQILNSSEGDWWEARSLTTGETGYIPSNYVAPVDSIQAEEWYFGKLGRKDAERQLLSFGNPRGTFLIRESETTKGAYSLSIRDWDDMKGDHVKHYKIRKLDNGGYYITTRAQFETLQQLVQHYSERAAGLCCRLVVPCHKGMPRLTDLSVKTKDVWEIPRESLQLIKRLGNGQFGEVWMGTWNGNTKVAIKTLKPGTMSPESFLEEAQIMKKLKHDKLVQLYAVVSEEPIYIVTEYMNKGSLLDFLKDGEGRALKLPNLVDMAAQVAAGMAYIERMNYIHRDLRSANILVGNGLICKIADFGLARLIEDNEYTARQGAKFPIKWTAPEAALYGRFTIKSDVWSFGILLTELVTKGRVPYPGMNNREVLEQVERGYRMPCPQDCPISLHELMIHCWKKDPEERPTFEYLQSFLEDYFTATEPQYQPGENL
Sequence of FGFR3 (P22607 whole entry, looked up): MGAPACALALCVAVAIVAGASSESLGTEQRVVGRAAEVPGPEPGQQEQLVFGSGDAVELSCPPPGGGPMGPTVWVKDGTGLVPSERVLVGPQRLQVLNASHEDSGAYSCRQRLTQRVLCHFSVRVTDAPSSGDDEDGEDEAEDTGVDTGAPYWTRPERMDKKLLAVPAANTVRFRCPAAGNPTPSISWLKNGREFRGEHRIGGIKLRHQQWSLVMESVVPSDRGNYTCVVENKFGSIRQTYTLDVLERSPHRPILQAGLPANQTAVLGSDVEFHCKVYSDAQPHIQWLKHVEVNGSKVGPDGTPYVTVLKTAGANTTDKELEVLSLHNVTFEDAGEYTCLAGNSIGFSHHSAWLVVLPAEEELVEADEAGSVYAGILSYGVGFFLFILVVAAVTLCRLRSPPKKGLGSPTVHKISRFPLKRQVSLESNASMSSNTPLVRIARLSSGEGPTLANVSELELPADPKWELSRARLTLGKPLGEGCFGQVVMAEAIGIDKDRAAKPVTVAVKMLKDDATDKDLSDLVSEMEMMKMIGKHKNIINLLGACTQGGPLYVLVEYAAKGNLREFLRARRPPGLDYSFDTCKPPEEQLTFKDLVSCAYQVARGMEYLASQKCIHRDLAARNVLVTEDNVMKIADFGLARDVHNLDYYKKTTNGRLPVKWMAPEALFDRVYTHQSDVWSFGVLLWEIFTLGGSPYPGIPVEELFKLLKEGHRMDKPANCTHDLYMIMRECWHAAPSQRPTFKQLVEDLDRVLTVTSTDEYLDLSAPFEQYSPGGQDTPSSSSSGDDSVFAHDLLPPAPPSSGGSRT
Sequence of EPHB1 (P54762 whole entry, looked up): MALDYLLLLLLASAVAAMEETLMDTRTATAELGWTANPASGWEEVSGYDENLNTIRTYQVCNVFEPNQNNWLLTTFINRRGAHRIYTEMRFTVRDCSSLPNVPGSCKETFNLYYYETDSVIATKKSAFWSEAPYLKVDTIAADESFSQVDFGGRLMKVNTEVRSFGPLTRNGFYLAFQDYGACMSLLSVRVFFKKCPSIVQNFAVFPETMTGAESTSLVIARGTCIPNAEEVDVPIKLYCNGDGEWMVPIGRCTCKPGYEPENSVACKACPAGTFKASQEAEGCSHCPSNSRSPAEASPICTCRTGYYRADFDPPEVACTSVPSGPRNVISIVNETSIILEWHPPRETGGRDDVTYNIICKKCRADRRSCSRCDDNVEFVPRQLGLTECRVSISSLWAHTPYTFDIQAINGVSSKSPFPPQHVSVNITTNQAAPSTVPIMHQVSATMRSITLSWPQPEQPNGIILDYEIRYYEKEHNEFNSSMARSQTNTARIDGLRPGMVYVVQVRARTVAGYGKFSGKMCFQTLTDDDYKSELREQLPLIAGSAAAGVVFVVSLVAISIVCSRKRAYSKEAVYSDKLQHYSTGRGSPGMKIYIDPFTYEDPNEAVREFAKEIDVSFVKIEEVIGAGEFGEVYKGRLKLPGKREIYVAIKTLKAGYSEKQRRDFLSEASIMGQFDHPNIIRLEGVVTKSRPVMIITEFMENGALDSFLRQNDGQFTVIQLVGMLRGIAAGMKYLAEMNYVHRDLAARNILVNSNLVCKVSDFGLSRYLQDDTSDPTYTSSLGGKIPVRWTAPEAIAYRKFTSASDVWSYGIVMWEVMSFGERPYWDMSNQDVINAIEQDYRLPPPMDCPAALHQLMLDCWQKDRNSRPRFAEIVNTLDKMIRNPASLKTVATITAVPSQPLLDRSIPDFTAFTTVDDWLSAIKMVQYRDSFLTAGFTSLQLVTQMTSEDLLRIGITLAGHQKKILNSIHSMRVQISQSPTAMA
Sequence of EPHB2 (P29323 whole entry, looked up): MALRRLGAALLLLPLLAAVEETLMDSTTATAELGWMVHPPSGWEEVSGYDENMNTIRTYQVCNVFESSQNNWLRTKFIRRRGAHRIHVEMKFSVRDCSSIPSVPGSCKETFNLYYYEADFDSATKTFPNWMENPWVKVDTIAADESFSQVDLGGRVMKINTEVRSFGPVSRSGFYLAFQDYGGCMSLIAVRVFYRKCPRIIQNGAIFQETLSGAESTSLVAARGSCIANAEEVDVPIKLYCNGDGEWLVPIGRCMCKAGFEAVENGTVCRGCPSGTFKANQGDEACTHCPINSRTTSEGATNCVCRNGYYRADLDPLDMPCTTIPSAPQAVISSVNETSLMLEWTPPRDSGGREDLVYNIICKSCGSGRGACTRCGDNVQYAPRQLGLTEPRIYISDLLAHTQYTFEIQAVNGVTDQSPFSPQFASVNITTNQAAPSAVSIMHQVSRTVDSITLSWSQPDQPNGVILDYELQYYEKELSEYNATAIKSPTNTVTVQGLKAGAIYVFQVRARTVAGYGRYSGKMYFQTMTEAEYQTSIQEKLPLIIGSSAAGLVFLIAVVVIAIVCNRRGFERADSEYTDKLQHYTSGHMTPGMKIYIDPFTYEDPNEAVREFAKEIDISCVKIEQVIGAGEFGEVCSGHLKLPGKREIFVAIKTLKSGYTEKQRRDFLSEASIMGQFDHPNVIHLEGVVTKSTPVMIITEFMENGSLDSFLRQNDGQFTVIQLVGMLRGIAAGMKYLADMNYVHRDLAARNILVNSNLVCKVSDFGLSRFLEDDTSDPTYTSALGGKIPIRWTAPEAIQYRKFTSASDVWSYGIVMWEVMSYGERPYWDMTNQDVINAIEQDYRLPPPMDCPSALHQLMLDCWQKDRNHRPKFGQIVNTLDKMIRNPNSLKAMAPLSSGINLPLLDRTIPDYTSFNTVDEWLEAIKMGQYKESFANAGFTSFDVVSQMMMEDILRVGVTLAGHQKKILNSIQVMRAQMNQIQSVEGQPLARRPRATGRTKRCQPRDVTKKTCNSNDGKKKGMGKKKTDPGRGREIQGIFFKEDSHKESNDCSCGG
Sequence of Hck (P08631 whole entry, looked up): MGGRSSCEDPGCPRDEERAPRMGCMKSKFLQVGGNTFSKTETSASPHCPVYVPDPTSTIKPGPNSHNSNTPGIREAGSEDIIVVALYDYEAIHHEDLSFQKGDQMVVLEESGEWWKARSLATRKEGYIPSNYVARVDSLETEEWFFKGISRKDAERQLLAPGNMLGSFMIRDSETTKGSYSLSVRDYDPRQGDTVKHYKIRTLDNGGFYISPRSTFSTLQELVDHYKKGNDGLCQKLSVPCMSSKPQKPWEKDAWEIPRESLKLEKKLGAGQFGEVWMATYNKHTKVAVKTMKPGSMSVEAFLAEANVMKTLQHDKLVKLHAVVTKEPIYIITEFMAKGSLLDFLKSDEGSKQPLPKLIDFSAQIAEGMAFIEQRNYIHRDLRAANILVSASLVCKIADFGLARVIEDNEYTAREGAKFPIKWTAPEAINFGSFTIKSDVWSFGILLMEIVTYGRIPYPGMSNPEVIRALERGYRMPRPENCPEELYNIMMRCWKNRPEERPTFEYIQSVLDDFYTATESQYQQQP
Sequence of Grb2 SH2 (P62993 whole entry, looked up, the tested form may be a part): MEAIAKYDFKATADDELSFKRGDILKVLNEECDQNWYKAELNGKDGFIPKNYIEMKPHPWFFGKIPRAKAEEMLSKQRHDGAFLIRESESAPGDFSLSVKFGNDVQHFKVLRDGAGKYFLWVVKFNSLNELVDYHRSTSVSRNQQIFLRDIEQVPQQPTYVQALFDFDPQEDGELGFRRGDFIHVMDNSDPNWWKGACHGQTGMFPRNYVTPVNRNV

Row | Sequence | phosphorylation enrichment (c-Abl (mouse)) | phosphorylation enrichment (Fyn) | phosphorylation enrichment (EPHB1) | phosphorylation enrichment (FGFR1) | phosphorylation enrichment (EPHB2) | phosphorylation enrichment (MERTK) | phosphorylation enrichment (Fes) | phosphorylation enrichment (Hck) | phosphorylation enrichment (Fer (mouse)) | phosphorylation enrichment (Jak2) | phosphorylation enrichment (FGFR3) | phosphorylation enrichment (AncSZ) | phosphorylation enrichment (c-Src) | SH2 binding enrichment (SHP2-C SH2) | SH2 binding enrichment (c-Src SH2) | SH2 binding enrichment (Grb2 SH2)
1 | RELGEYPLAEY [ALDH1A3_Y492_A493P] | 1.17 | 0.582 | 0.484 | 0.688 | 0.495 | 0.516 | 1.41 | 0.505 | 0.593 | 1.97 | 0.685 | 0.982 | 0.492 | 0.291 | 2.46 | 0.795
2 | RELSWYRGRRP [HESX1_Y106] | 0.787 | 0.781 | 0.484 | 0.53 | 0.683 | 0.833 | 0.794 | 0.809 | 0.693 | 0.895 | 0.563 | 1.02 | 0.727 | 0.422 | 0.318 | 0.734
3 | REVPVYTDSEP [FAM120B_Y368] | 0.964 | 0.753 | 0.965 | 0.588 | 0.725 | 0.478 | 1.35 | 0.643 | 0.895 | 1.38 | 1.4 | 1.35 | 0.872 | 0.351 | 0.911 | 0.986
4 | RFFTTYDTNGR [CLCA1_Y665_YF] | 0.858 | 0.627 | 0.726 | 0.674 | 0.834 | 0.707 | 0.951 | 0.787 | 0.688 | 0.816 | 0.878 | 1.08 | 1.09 | 1.67 | 0.532 | 0.825
5 | RFLRGYRQFAF [HLA-A_Y137_D140Y_YF] | 0.661 | 0.583 | 0.67 | 0.643 | 0.514 | 0.587 | 0.908 | 0.519 | 0.678 | 0.661 | 0.579 | 1.19 | 0.76 | 0.521 | 0.412 | 0.895
6 | RFVTRYIFNRE [HLA-DQB1_Y62_YF] | 0.528 | 0.76 | 0.536 | 0.923 | 0.591 | 0.643 | 1.68 | 0.655 | 0.615 | 0.921 | 0.796 | 1.2 | 0.593 | 0.721 | 0.355 | 0.627
7 | RGESFYQDTMN [RARS_Y338_R341T] | 1.03 | 0.634 | 2.62 | 0.695 | 1.63 | 1.02 | 0.98 | 0.429 | 1.79 | 0.941 | 0.888 | 1.02 | 0.602 | 0.807 | 0.694 | 0.98
8 | RGKLFYQEVPA [METTL11B_Y76_A72G] | 0.503 | 0.544 | 1.48 | 1.37 | 0.777 | 3.21 | 1.05 | 0.853 | 0.719 | 0.649 | 1.29 | 0.844 | 0.564 | 0.804 | 1.11 | 0.956
9 | RGVTRYIYNRE [HLA-DQB1_Y62_Y58G] | 1 | 0.96 | 0.912 | 0.809 | 0.547 | 0.865 | 1.16 | 0.97 | 0.768 | 1.25 | 0.619 | 1.34 | 0.953 | 0.756 | 0.527 | 0.802
10 | RHFTTYDTNGR [CLCA1_Y665_Y661H] | 0.618 | 1.01 | 0.609 | 0.808 | 0.97 | 0.707 | 0.938 | 0.835 | 0.594 | 0.844 | 0.755 | 0.93 | 0.876 | 0.642 | 0.494 | 0.716
11 | RHLQEYQDLLN [GFAP_Y349] | 0.417 | 0.616 | 0.513 | 0.418 | 0.45 | 0.392 | 0.807 | 0.468 | 0.389 | 0.565 | 0.477 | 0.737 | 0.399 | 1.27 | 1.13 | 1.71
12 | RHPLDYLRQFP [NARS2_Y138_E137D_YF] | 0.753 | 0.511 | 0.458 | 0.429 | 0.583 | 0.56 | 0.74 | 0.498 | 0.349 | 0.78 | 0.449 | 0.719 | 0.609 | 0.746 | 0.519 | 1.05
13 | RHTRSYDYTEG [FGF7_Y56_M59T] | 0.414 | 0.635 | 0.407 | 0.488 | 0.369 | 0.514 | 0.918 | 0.602 | 0.477 | 0.587 | 0.546 | 0.521 | 0.476 | 0.841 | 1.5 | 0.864
14 | RIDPDYVGRVR [IGSF9_Y81] | 0.65 | 0.481 | 0.534 | 0.496 | 0.402 | 0.405 | 0.702 | 0.403 | 0.384 | 0.778 | 0.482 | 0.871 | 0.563 | 0.755 | 0.583 | 0.758
15 | RILDVYIFLGP [GAA_Y340_G335R] | 0.543 | 0.46 | 0.842 | 0.836 | 0.676 | 0.492 | 1.05 | 0.547 | 0.584 | 0.858 | 0.672 | 1 | 0.393 | 0.595 | 0.534 | 0.746
16 | RKKEEYKMALF [F8_Y1990_YF] | 0.72 | 0.31 | 0.734 | 0.4 | 0.738 | 0.391 | 0.708 | 0.465 | 0.494 | 0.691 | 0.607 | 0.759 | 0.555 | 1.21 | 0.846 | 1.09
17 | RKLVDYDSARH [BIN1_Y150] | 0.916 | 0.449 | 0.498 | 0.571 | 0.481 | 0.57 | 0.968 | 0.418 | 0.565 | 0.792 | 0.668 | 0.491 | 0.649 | 0.42 | 0.387 | 1.03

Row | Sequence | phosphorylation enrichment (c-Abl (mouse)) | phosphorylation enrichment (Fyn) | phosphorylation enrichment (EPHB1) | phosphorylation enrichment (FGFR1) | phosphorylation enrichment (EPHB2) | phosphorylation enrichment (MERTK) | phosphorylation enrichment (Fes) | phosphorylation enrichment (Hck) | phosphorylation enrichment (Fer (mouse)) | phosphorylation enrichment (Jak2) | phosphorylation enrichment (FGFR3) | phosphorylation enrichment (AncSZ) | phosphorylation enrichment (c-Src) | SH2 binding enrichment (SHP2-C SH2) | SH2 binding enrichment (c-Src SH2) | SH2 binding enrichment (Grb2 SH2)
18 | RKVLVYDKLNV [ROR2_Y624_N620K] | 0.854 | 1.71 | 1.37 | 0.49 | 0.794 | 2 | 0.852 | 10.3 | 1.25 | 0.548 | 0.44 | 0.875 | 1.82 | 1.09 | 1.44 | 0.906
19 | RLAQRYLIWEC [SCN5A_Y694] | 0.86 | 0.595 | 0.943 | 0.647 | 0.914 | 0.609 | 1.66 | 0.679 | 0.546 | 1.34 | 0.841 | 1.09 | 0.492 | 0.655 | 0.691 | 0.982
20 | RLFARYFQGDL [PDK3_Y337_YF] | 0.524 | 0.499 | 0.416 | 0.572 | 0.547 | 0.525 | 0.882 | 0.723 | 0.474 | 0.545 | 0.627 | 0.826 | 0.481 | 0.454 | 0.292 | 0.713
21 | RLGNQYVNVMN [SLC3A1_Y461] | 0.524 | 0.471 | 2.21 | 0.541 | 0.59 | 0.352 | 0.727 | 0.446 | 0.513 | 0.64 | 0.991 | 0.619 | 0.508 | 2.03 | 2.79 | 15.4
22 | RLLCEYQELMN [KRT75_Y434_R432C] | 0.804 | 0.83 | 1.34 | 0.961 | 1.09 | 0.369 | 1.78 | 0.761 | 0.839 | 1.33 | 1.6 | 1.5 | 0.647 | 0.566 | 0.54 | 0.618
23 | RLLRGYNQSAF [HLA-C_Y137_D138N_YF] | 0.316 | 0.458 | 0.503 | 0.665 | 0.417 | 0.56 | 0.804 | 0.402 | 0.268 | 0.476 | 0.547 | 0.54 | 0.424 | 0.705 | 0.976 | 1.14
24 | RLPSGYGLAFR [DLK1_Y262_YF] | 0.889 | 0.549 | 0.416 | 0.422 | 0.526 | 0.396 | 0.885 | 0.509 | 0.49 | 0.837 | 0.595 | 0.734 | 0.478 | 0.852 | 0.521 | 0.823
25 | RLSVDCGKKSK [TUBA4A_Y161_Y161C] | 0.828 | 0.551 | 1.03 | 0.444 | 0.619 | 0.432 | 0.825 | 0.462 | 0.571 | 1.1 | 0.788 | 0.684 | 0.471 | 0.984 | 0.884 | 0.846
26 | RMGNLYDIDED [GRIN2A_Y1246] | 1.11 | 2.25 | 0.583 | 0.591 | 0.491 | 0.606 | 1.32 | 1.25 | 0.543 | 1.36 | 0.808 | 1.11 | 1.25 | 0.501 | 1.23 | 0.599
27 | RNDRVYQPLRD [CD3D_Y149_Q147R] | 0.689 | 0.675 | 0.629 | 0.41 | 0.432 | 0.786 | 0.785 | 5.18 | 0.475 | 0.509 | 0.616 | 0.604 | 1.55 | 0.727 | 0.943 | 0.845
28 | RNFVHYVQGLK [VWF_Y1400_R1399H] | 0.669 | 0.613 | 0.511 | 0.429 | 0.515 | 0.544 | 0.833 | 0.369 | 0.349 | 0.605 | 0.52 | 0.875 | 0.583 | 1.96 | 0.7 | 1.14
29 | RNGNRYFKGIV [DCX_Y64_D62N] | 0.799 | 0.42 | 0.516 | 0.578 | 0.51 | 0.701 | 0.607 | 0.527 | 0.6 | 1.02 | 0.513 | 1.33 | 0.846 | 0.726 | 0.509 | 0.602
30 | RPASVYTKRCS [CPT2_Y508] | 0.687 | 0.623 | 0.377 | 0.586 | 0.603 | 0.442 | 0.826 | 0.418 | 0.459 | 0.444 | 0.533 | 0.781 | 0.476 | 0.643 | 0.622 | 1.1
31 | RPSRWYQFPVA [ANOS1_Y259_R262P] | 0.657 | 0.496 | 0.403 | 2.41 | 0.433 | 7.23 | 0.889 | 0.5 | 0.692 | 0.914 | 1.38 | 2.95 | 0.648 | 2.07 | 1.71 | 1.79
32 | RQGKDYIGAIP [KDR_Y951_V952I] | 1.88 | 0.715 | 0.399 | 0.596 | 0.62 | 0.813 | 0.764 | 0.696 | 0.462 | 1.14 | 0.547 | 0.804 | 0.837 | 0.646 | 0.428 | 0.904
33 | RRAVKYLQMVG [AVPR2_Y117_C112R] | 0.961 | 0.778 | 0.815 | 0.52 | 1.01 | 0.727 | 0.978 | 0.674 | 0.431 | 0.887 | 0.629 | 1.13 | 0.737 | 0.695 | 0.525 | 0.84
